{
  "source": "paper PMC6817756",
  "molecules": {"B1": {"name": "VEGFA-1 E box (dsDNA)", "DNA 1": "CCCCCACCACCTGGTGCCTGA", "DNA 2": "TCAGGCACCAGGTGGTGGGGG"}, "B2": {"name": "E box DNA (FP probe) (dsDNA)", "DNA 1": "CCCCCACCACGTGGTGCCTGA", "DNA 2": "TCAGGCACCACGTGGTGGGGG"}, "B3": {"name": "VEGFA-2 E box (dsDNA)", "DNA 1": "CCCCCACCACGCGGTGCCTGA", "DNA 2": "TCAGGCACCGCGTGGTGGGGG"}},
  "key": {"ME-47": {"system": "ME-47", "assay": "fluorescence polarization", "conditions": "FP: 10 mM Tris-HCl, 50 mM KCl, 1 mM EDTA, 5 mM MgCl2, 10 mM DTT, 2 nM DNA stock mixed 20 ul + 20 ul protein, 30 min, pH and temperature not stated; pulldown: …"}, "[1]": {"target": "Myc (human (endogenous in HCT116)) (UniProt P01106)"}, "[2]": {"target": "Omomyc (recombinant, bacterially expressed) (UniProt P01106)", "assay": "SEC; size exclusion chromatography of purified Omomyc, data not shown"}, "[3]": {"target": "Omomyc (recombinant, bacterially expressed) (UniProt P01106)", "assay": "native gel or EMSA; native gel electrophoresis of purified recombinant Omomyc (the legend of Fig. 1A speaks of SDS-PAGE under nonreduced and reduced conditions)"}, "[4]": {"target": "MYC bHLH peptide (in MYC/MAX);MAX bHLH peptide (in MYC/MAX) (;, UniProt P01106;P61244 365-454;22-103, |)", "assay": "fluorescence polarization; table heading: affinity; FP: 10 mM Tris-HCl, 50 mM KCl, 1 mM EDTA, 5 mM MgCl2, 10 mM DTT, 2 nM DNA stock mixed 20 ul + 20 ul protein, 30 min, pH and temperature not stated; pulldown: 50 mM Tris-HCl pH 7.5, 5% glycerol, 1.5 mM MgCl2, 150 mM NaCl, 1 mM DTT, IGEPAL, 4 C", "conditions": "tags: ;, copies: 1;1, blunt"}, "[5]": {"target": "T1, Omomyc (synthetic or recombinant) (UniProt P01106 365-454, E425T;E432I;R438Q;R439N)", "assay": "fluorescence polarization; table heading: affinity; FP: 10 mM Tris-HCl, 50 mM KCl, 1 mM EDTA, 5 mM MgCl2, 10 mM DTT, 2 nM DNA stock mixed 20 ul + 20 ul protein, 30 min, pH and temperature not stated; pulldown: 50 mM Tris-HCl pH 7.5, 5% glycerol, 1.5 mM MgCl2, 150 mM NaCl, 1 mM DTT, IGEPAL, 4 C", "conditions": "chain copies: 2, blunt"}, "[6]": {"target": "MYC bHLH peptide (MYC/MYC) (UniProt P01106 365-454)", "assay": "fluorescence polarization; table heading: affinity; FP: 10 mM Tris-HCl, 50 mM KCl, 1 mM EDTA, 5 mM MgCl2, 10 mM DTT, 2 nM DNA stock mixed 20 ul + 20 ul protein, 30 min, pH and temperature not stated; pulldown: 50 mM Tris-HCl pH 7.5, 5% glycerol, 1.5 mM MgCl2, 150 mM NaCl, 1 mM DTT, IGEPAL, 4 C", "conditions": "chain copies: 2, blunt"}, "[7]": {"target": "T2, MAX bHLH peptide (MAX/MAX) (UniProt P61244 22-103)", "assay": "fluorescence polarization; text: fails to bind; FP: 10 mM Tris-HCl, 50 mM KCl, 1 mM EDTA, 5 mM MgCl2, 10 mM DTT, 2 nM DNA stock mixed 20 ul + 20 ul protein, 30 min, pH and temperature not stated; pulldown: 50 mM Tris-HCl pH 7.5, 5% glycerol, 1.5 mM MgCl2, 150 mM NaCl, 1 mM DTT, IGEPAL, 4 C", "conditions": "chain copies: 2; label: 5'-FAM; blunt"}, "[8]": {"target": "T2, MAX bHLH peptide (MAX/MAX)", "assay": "fluorescence polarization; table heading: affinity; FP: 10 mM Tris-HCl, 50 mM KCl, 1 mM EDTA, 5 mM MgCl2, 10 mM DTT, 2 nM DNA stock mixed 20 ul + 20 ul protein, 30 min, pH and temperature not stated; pulldown: 50 mM Tris-HCl pH 7.5, 5% glycerol, 1.5 mM MgCl2, 150 mM NaCl, 1 mM DTT, IGEPAL, 4 C", "conditions": "chain copies: 2; blunt"}, "[9]": {"target": "T1, Omomyc (synthetic or recombinant)", "assay": "fluorescence polarization; synthetic Omomyc; FP: 10 mM Tris-HCl, 50 mM KCl, 1 mM EDTA, 5 mM MgCl2, 10 mM DTT, 2 nM DNA stock mixed 20 ul + 20 ul protein, 30 min, pH and temperature not stated; pulldown: 50 mM Tris-HCl pH 7.5, 5% glycerol, 1.5 mM MgCl2, 150 mM NaCl, 1 mM DTT, IGEPAL, 4 C", "conditions": "chain copies: 2; blunt"}},
  "data": [
    {"molecule": "CCCCCACCACGTGGTGCCTGA (double strand) [E box DNA (FP probe)]", "values": [
      {"measurement": "Kd", "setting": "ME-47", "value": 117, "unit": "nM"}
    ]},
    {"molecule": "CCCCCACCACCTGGTGCCTGA (double strand) [VEGFA-1 E box]", "values": [
      {"measurement": "Kd", "setting": "ME-47", "value": 1080, "unit": "nM"}
    ]},
    {"molecule": "CCCCCACCACGCGGTGCCTGA (double strand) [VEGFA-2 E box]", "values": [
      {"measurement": "Kd", "setting": "ME-47", "value": 3110, "unit": "nM"}
    ]},
    {"molecule": "Omomyc (recombinant, bacterially expressed) (from UniProt P01106 369-421) (domain or fragment)", "values": [
      {"measurement": "cellular thermal shift assay (CETSA) in Ramos cell lysates with 20 μM Omomyc: change in the aggregation temperature (Tagg) of Myc (destabilisation)", "setting": "[1]", "value": 6, "unit": "°C"},
      {"measurement": "cellular thermal shift assay (CETSA), isothermal dose-response fingerprint at 54°C in Ramos cell lysates: EC50 of Omomyc for thermal destabilisation of Myc", "setting": "[1]", "value": 16, "unit": "µM"},
      {"measurement": "stoichiometry N", "setting": "[2]", "value": 2},
      {"measurement": "stoichiometry N", "setting": "[3]", "value": 2}
    ]},
    {"molecule": "B1", "values": [
      {"measurement": "Kd", "setting": "[4]; label: 5'-FAM", "value": 397, "unit": "nM"},
      {"measurement": "Kd", "setting": "[5]; label: 5'-FAM", "value": 103, "unit": "nM"},
      {"measurement": "Kd", "setting": "[6]; label: 5'-FAM", "value": 140, "unit": "nM"},
      {"measurement": "Kd", "setting": "[7]", "value": 3390, "unit": "nM"}
    ]},
    {"molecule": "B2", "values": [
      {"measurement": "Kd", "setting": "[8]", "value": 258, "unit": "nM"},
      {"measurement": "Kd", "setting": "[4]", "value": 71.4, "unit": "nM"},
      {"measurement": "Kd", "setting": "[5]", "value": 107, "unit": "nM"},
      {"measurement": "Kd", "setting": "[6]", "value": 159, "unit": "nM"},
      {"measurement": "Kd", "setting": "[9]", "value": "~22", "unit": "nM"}
    ]},
    {"molecule": "B3", "values": [
      {"measurement": "Kd", "setting": "[4]; label: 5'-FAM", "value": 451, "unit": "nM"},
      {"measurement": "Kd", "setting": "[5]; label: 5'-FAM", "value": 99.2, "unit": "nM"},
      {"measurement": "Kd", "setting": "[6]; label: 5'-FAM", "value": 111, "unit": "nM"},
      {"measurement": "Kd", "setting": "[7]", "value": 2020, "unit": "nM"}
    ]}
  ]
}
